Changes are numbered by the printed parent chain. Names and notes keep the numbering of the source.
T1: TNFR1 (Homo sapiens, UniProt P19438)
T1 chain: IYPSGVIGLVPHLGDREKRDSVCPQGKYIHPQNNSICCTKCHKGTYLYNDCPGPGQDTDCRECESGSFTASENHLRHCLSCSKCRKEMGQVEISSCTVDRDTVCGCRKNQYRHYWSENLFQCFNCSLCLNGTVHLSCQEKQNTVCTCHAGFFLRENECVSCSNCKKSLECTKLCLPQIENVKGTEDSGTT

B1: E83Y (designed binder)
chain: SMEEEVEKAAKEYEKKKKEAIEKHLEKLKAKDKEAAERFLKELEEAAKEYAKDEAKTMSEEEAKRRAKKYKEKVLLSELSEEYQKEIKEAEEKLVRTILKYVEEAAK
B2: E26A (designed binder)
chain: B1 chain with E26A, Y83E
B3: Q84I (designed binder)
chain: B1 chain with Y83E, Q84I
B4: E45K (designed binder)
chain: B1 chain with E45K, Y83E
B5: E91N (designed binder)
chain: B1 chain with Y83E, E91N
B6: E12T (designed binder)
chain: B1 chain with E12T, Y83E
B7: K93V (designed binder)
chain: B1 chain with Y83E, K93V
B8: E19A (designed binder)
chain: B1 chain with E19A, Y83E
B9: S59P (designed binder)
chain: B1 chain with S59P, Y83E
B10: K85C (designed binder)
chain: B1 chain with Y83E, K85C
B11: L79T (designed binder)
chain: B1 chain with L79T, Y83E
B12: F39I (designed binder)
chain: B1 chain with F39I, Y83E
B13: K23W (designed binder)
chain: B1 chain with K23W, Y83E
B14: A46S (designed binder)
chain: B1 chain with A46S, Y83E
B15: K11M (designed binder)
chain: B1 chain with K11M, Y83E
B16: A106C (designed binder)
chain: B1 chain with Y83E, A106C
B17: I87H (designed binder)
chain: B1 chain with Y83E, I87H
B18: A55H (designed binder)
chain: B1 chain with A55H, Y83E
B19: K56I (designed binder)
chain: B1 chain with K56I, Y83E
B20: A67K (designed binder)
chain: B1 chain with A67K, Y83E
B21: V102H (designed binder)
chain: B1 chain with Y83E, V102H
B22: A20F (designed binder)
chain: B1 chain with A20F, Y83E
B23: D53M (designed binder)
chain: B1 chain with D53M, Y83E
B24: E104F (designed binder)
chain: B1 chain with Y83E, E104F
B25: L79R (designed binder)
chain: B1 chain with L79R, Y83E
B26: F39R (designed binder)
chain: B1 chain with F39R, Y83E
B27: E92V (designed binder)
chain: B1 chain with Y83E, E92V
B28: E61D (designed binder)
chain: B1 chain with E61D, Y83E
B29: E60A (designed binder)
chain: B1 chain with E60A, Y83E
B30: E83D (designed binder)
chain: B1 chain with Y83D
B31: A51G (designed binder)
chain: B1 chain with A51G, Y83E
B32: A36W (designed binder)
chain: B1 chain with A36W, Y83E
B33: K17A (designed binder)
chain: B1 chain with K17A, Y83E
B34: K71V (designed binder)
chain: B1 chain with K71V, Y83E
B35: K18I (designed binder)
chain: B1 chain with K18I, Y83E
B36: E89W (designed binder)
chain: B1 chain with Y83E, E89W
B37: S59K (designed binder)
chain: B1 chain with S59K, Y83E
B38: E78Y (designed binder)
chain: B1 chain with E78Y, Y83E
B39: A55R (designed binder)
chain: B1 chain with A55R, Y83E
B40: L40W (designed binder)
chain: B1 chain with L40W, Y83E
B41: T97I (designed binder)
chain: B1 chain with Y83E, T97I
B42: K68I (designed binder)
chain: B1 chain with K68I, Y83E
B43: L25Q (designed binder)
chain: B1 chain with L25Q, Y83E
B44: E62Y (designed binder)
chain: B1 chain with E62Y, Y83E
B45: A47P (designed binder)
chain: B1 chain with A47P, Y83E
B46: H24T (designed binder)
chain: B1 chain with H24T, Y83E
B47: K71A (designed binder)
chain: B1 chain with K71A, Y83E
B48: K64V (designed binder)
chain: B1 chain with K64V, Y83E
B49: D53E (designed binder)
chain: B1 chain with D53E, Y83E
B50: K41Y (designed binder)
chain: B1 chain with K41Y, Y83E
B51: K33E (designed binder)
chain: B1 chain with K33E, Y83E
B52: A67G (designed binder)
chain: B1 chain with A67G, Y83E
B53: K33W (designed binder)
chain: B1 chain with K33W, Y83E
B54: A36I (designed binder)
chain: B1 chain with A36I, Y83E
B55: E62L (designed binder)
chain: B1 chain with E62L, Y83E
B56: A55N (designed binder)
chain: B1 chain with A55N, Y83E
B57: M58A (designed binder)
chain: B1 chain with M58A, Y83E
B58: T57H (designed binder)
chain: B1 chain with T57H, Y83E
B59: A20Y (designed binder)
chain: B1 chain with A20Y, Y83E

Molecular target: T1, TNFR1
Assay: yeast display SC50

Row | apparent Kd (screen) | Binder
1 | 2.05 nM | B1
2 | 1.05 nM | B2
3 | 2.73 nM | B3
4 | 12.5 nM | B4
5 | 0.653 nM | B5
6 | 1.05 nM | B6
7 | 1.16 nM | B7
8 | 0.869 nM | B8
9 | 0.446 nM | B9
10 | 0.539 nM | B10
11 | 1.86 nM | B11
12 | 3.99 nM | B12
13 | 0.956 nM | B13
14 | 0.49 nM | B14
15 | 0.446 nM | B15
16 | 3 nM | B16
17 | 2.25 nM | B17
18 | 12.5 nM | B18
19 | 2.73 nM | B19
20 | 1.54 nM | B20

Row | apparent Kd (screen) | Binder
21 | 0.49 nM | B21
22 | 0.446 nM | B22
23 | 4.83 nM | B23
24 | 0.593 nM | B24
25 | 13.8 nM | B25
26 | 5.84 nM | B26
27 | 12.5 nM | B27
28 | 1.05 nM | B28
29 | 0.956 nM | B29
30 | 1.16 nM | B30
31 | 2.05 nM | B31
32 | 0.446 nM | B32
33 | 1.86 nM | B33
34 | 0.446 nM | B34
35 | 0.653 nM | B35
36 | 1.69 nM | B36
37 | 1.05 nM | B37
38 | 0.446 nM | B38
39 | 1.05 nM | B39
40 | 0.49 nM | B40

Row | apparent Kd (screen) | Binder
41 | 2.05 nM | B41
42 | 0.869 nM | B42
43 | 1.54 nM | B43
44 | 0.869 nM | B44
45 | 10.4 nM | B45
46 | 1.16 nM | B46
47 | 0.446 nM | B47
48 | 0.653 nM | B48
49 | 0.718 nM | B49
50 | 0.446 nM | B50
51 | 0.539 nM | B51
52 | 0.49 nM | B52
53 | 0.869 nM | B53
54 | 1.54 nM | B54
55 | 0.653 nM | B55
56 | 11.4 nM | B56
57 | 10.4 nM | B57
58 | 0.277 nM | B58
59 | 0.446 nM | B59

Source: paper PMC12416549 (2024)
